Residue numbers refer to the chain shown, from its start. Starred links: 1 amine or outer side, 2 acyl side, 3 side chain; linkers in the order of their positions; H or OH if unused. Residues, ends and D or L forms follow the SMILES beside them. Groups on a side chain read outwards from the residue. *: point of attachment. C20 diacid = O=C(O)CCCCCCCCCCCCCCCCCCC(=O)*; C18 diacid = O=C(O)CCCCCCCCCCCCCCCCC(=O)*; γGlu = O=C(O)[C@H](CCC(=O)[*:2])N[*:1]; AEEA = NCCOCCOCC(=O)O
B1: GLP-1R antagonist analog (SEQ ID NO: 9) (peptide)
peptide: Ac-DVSSYLEEQAVREFIAWLVKGGPSSGAPPPS-NH2
B2: GLP-1R antagonist analog (SEQ ID NO: 10) (peptide)
peptide: DLSSYLEEEAVRLFIEWLKNGGPSSGAPPPS
modifications: N-terminus acetylated; C-terminal amide
B3: GLP-1R antagonist analog (SEQ ID NO: 5) (peptide)
peptide: B2 peptide with Y5Q, L6M
modifications: N-terminus acetylated; C-terminal amide
B4: acylated GLP-1R antagonist analog conjugate (SEQ ID NO: 16) (peptide)
peptide: Ac-DVSSYLEEEAARLFIAWLVK([AEEA-AEEA-γGlu-C18 diacid])GGPSSGAPPPS-NH2
SMILES: CC[C@H](C)[C@H](NC(=O)[C@H](Cc1ccccc1)NC(=O)[C@H](CC(C)C)NC(=O)[C@H](CCCNC(=N)N)NC(=O)[C@H](C)NC(=O)[C@H](C)NC(=O)[C@H](CCC(=O)O)NC(=O)[C@H](CCC(=O)O)NC(=O)[C@H](CCC(=O)O)NC(=O)[C@H](CC(C)C)NC(=O)[C@H](Cc1ccc(O)cc1)NC(=O)[C@H](CO)NC(=O)[C@H](CO)NC(=O)[C@@H](NC(=O)[C@H](CC(=O)O)NC(C)=O)C(C)C)C(=O)N[C@@H](C)C(=O)N[C@@H](Cc1c[nH]c2ccccc12)C(=O)N[C@@H](CC(C)C)C(=O)N[C@H](C(=O)N[C@@H](CCCCNC(=O)COCCOCCNC(=O)COCCOCCNC(=O)CC[C@H](NC(=O)CCCCCCCCCCCCCCCCC(=O)O)C(=O)O)C(=O)NCC(=O)NCC(=O)N1CCC[C@H]1C(=O)N[C@@H](CO)C(=O)N[C@@H](CO)C(=O)NCC(=O)N[C@@H](C)C(=O)N1CCC[C@H]1C(=O)N1CCC[C@H]1C(=O)N1CCC[C@H]1C(=O)N[C@@H](CO)C(N)=O)C(C)C
B5: acylated GLP-1R antagonist analog conjugate (SEQ ID NO: 15) (peptide)
peptide: Ac-DVSSYLEEEAVRLFIAWLVK([AEEA-AEEA-γGlu-C18 diacid])GGPSSGAPPPS-NH2
SMILES: CC[C@H](C)[C@H](NC(=O)[C@H](Cc1ccccc1)NC(=O)[C@H](CC(C)C)NC(=O)[C@H](CCCNC(=N)N)NC(=O)[C@@H](NC(=O)[C@H](C)NC(=O)[C@H](CCC(=O)O)NC(=O)[C@H](CCC(=O)O)NC(=O)[C@H](CCC(=O)O)NC(=O)[C@H](CC(C)C)NC(=O)[C@H](Cc1ccc(O)cc1)NC(=O)[C@H](CO)NC(=O)[C@H](CO)NC(=O)[C@@H](NC(=O)[C@H](CC(=O)O)NC(C)=O)C(C)C)C(C)C)C(=O)N[C@@H](C)C(=O)N[C@@H](Cc1c[nH]c2ccccc12)C(=O)N[C@@H](CC(C)C)C(=O)N[C@H](C(=O)N[C@@H](CCCCNC(=O)COCCOCCNC(=O)COCCOCCNC(=O)CC[C@H](NC(=O)CCCCCCCCCCCCCCCCC(=O)O)C(=O)O)C(=O)NCC(=O)NCC(=O)N1CCC[C@H]1C(=O)N[C@@H](CO)C(=O)N[C@@H](CO)C(=O)NCC(=O)N[C@@H](C)C(=O)N1CCC[C@H]1C(=O)N1CCC[C@H]1C(=O)N1CCC[C@H]1C(=O)N[C@@H](CO)C(N)=O)C(C)C
B6: GLP-1R antagonist analog (SEQ ID NO: 7) (peptide)
peptide: Ac-TSDVSSYLEEEAVRLFIAWLVKGGPSSGAPPPS-NH2
B7: GLP-1R antagonist analog (SEQ ID NO: 8) (peptide)
peptide: Ac-DVSSYLEEEAVRLFIAWLVKGGPSSGAPPPS-NH2
B8: acylated GLP-1R antagonist analog conjugate (SEQ ID NO: 20) (peptide)
peptide: Ac-DVSSYLEEEAVRLFIAWLVKGGPSSGAPPPSK([AEEA-AEEA-γGlu-C20 diacid])-NH2
SMILES: CC[C@H](C)[C@H](NC(=O)[C@H](Cc1ccccc1)NC(=O)[C@H](CC(C)C)NC(=O)[C@H](CCCNC(=N)N)NC(=O)[C@@H](NC(=O)[C@H](C)NC(=O)[C@H](CCC(=O)O)NC(=O)[C@H](CCC(=O)O)NC(=O)[C@H](CCC(=O)O)NC(=O)[C@H](CC(C)C)NC(=O)[C@H](Cc1ccc(O)cc1)NC(=O)[C@H](CO)NC(=O)[C@H](CO)NC(=O)[C@@H](NC(=O)[C@H](CC(=O)O)NC(C)=O)C(C)C)C(C)C)C(=O)N[C@@H](C)C(=O)N[C@@H](Cc1c[nH]c2ccccc12)C(=O)N[C@@H](CC(C)C)C(=O)N[C@H](C(=O)N[C@@H](CCCCN)C(=O)NCC(=O)NCC(=O)N1CCC[C@H]1C(=O)N[C@@H](CO)C(=O)N[C@@H](CO)C(=O)NCC(=O)N[C@@H](C)C(=O)N1CCC[C@H]1C(=O)N1CCC[C@H]1C(=O)N1CCC[C@H]1C(=O)N[C@@H](CO)C(=O)N[C@@H](CCCCNC(=O)COCCOCCNC(=O)COCCOCCNC(=O)CC[C@H](NC(=O)CCCCCCCCCCCCCCCCCCC(=O)O)C(=O)O)C(N)=O)C(C)C
B9: acylated GLP-1R antagonist analog conjugate (SEQ ID NO: 18) (peptide)
peptide: Ac-DVSSYLEEEAVRLFIAWLVKGGPSSGAPPPSK([AEEA-AEEA-γGlu-C18 diacid])-NH2
SMILES: CC[C@H](C)[C@H](NC(=O)[C@H](Cc1ccccc1)NC(=O)[C@H](CC(C)C)NC(=O)[C@H](CCCNC(=N)N)NC(=O)[C@@H](NC(=O)[C@H](C)NC(=O)[C@H](CCC(=O)O)NC(=O)[C@H](CCC(=O)O)NC(=O)[C@H](CCC(=O)O)NC(=O)[C@H](CC(C)C)NC(=O)[C@H](Cc1ccc(O)cc1)NC(=O)[C@H](CO)NC(=O)[C@H](CO)NC(=O)[C@@H](NC(=O)[C@H](CC(=O)O)NC(C)=O)C(C)C)C(C)C)C(=O)N[C@@H](C)C(=O)N[C@@H](Cc1c[nH]c2ccccc12)C(=O)N[C@@H](CC(C)C)C(=O)N[C@H](C(=O)N[C@@H](CCCCN)C(=O)NCC(=O)NCC(=O)N1CCC[C@H]1C(=O)N[C@@H](CO)C(=O)N[C@@H](CO)C(=O)NCC(=O)N[C@@H](C)C(=O)N1CCC[C@H]1C(=O)N1CCC[C@H]1C(=O)N1CCC[C@H]1C(=O)N[C@@H](CO)C(=O)N[C@@H](CCCCNC(=O)COCCOCCNC(=O)COCCOCCNC(=O)CC[C@H](NC(=O)CCCCCCCCCCCCCCCCC(=O)O)C(=O)O)C(N)=O)C(C)C
B10: GLP-1R antagonist analog (SEQ ID NO: 12) (peptide)
peptide: Ac-DVSSYLEEEAVRLFIAWLVKGGPSSGAPPPSC-NH2

Each molecule was assayed against human GLP-1 receptor (GLP-1R) (human, UniProt P43220 24-463) (assay: cell-based or functional assay). Details: not given.

Molecule	In vitro activity compared with comparative substance (%); IC50 of cAMP inhibition in hGLP-1R CHO cells with 0.1 nM GLP-1
B1	189%
B2	250%
B3	85%
B4	13.5%
B5	14.3%
B6	196%
B7	238%
B8	15.1%
B9	19.8%
B10	189%

These molecules were tested against human GLP-1R (hGLP-1R) (Homo sapiens, UniProt P43220) (assay: In vitro cell activity: cAMP inhibition (LANCE Ultra cAMP kit) in CHO cells expressing human GLP-1R, with GLP-1 added). Details: relative activity from IC50 of cAMP inhibition; 0.1 nM GLP-1 added; comparative substance exendin-3 (9-39) amide = 100.
Sequence of human GLP-1R (hGLP-1R) (P43220 24-463): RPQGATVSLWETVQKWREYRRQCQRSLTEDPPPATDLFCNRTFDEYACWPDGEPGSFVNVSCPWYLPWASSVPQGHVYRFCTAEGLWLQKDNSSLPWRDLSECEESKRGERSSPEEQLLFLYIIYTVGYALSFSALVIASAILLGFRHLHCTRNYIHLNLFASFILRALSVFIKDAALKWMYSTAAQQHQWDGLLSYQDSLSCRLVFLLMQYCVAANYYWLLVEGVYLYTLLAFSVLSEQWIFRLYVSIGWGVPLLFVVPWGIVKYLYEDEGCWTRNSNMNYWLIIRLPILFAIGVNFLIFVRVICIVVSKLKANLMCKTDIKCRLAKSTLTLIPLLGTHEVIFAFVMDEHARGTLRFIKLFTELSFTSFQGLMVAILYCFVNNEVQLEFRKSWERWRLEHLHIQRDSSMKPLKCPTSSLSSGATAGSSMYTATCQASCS
Type: cell-based
Protocol: The human GLP-1R-expressed CHO cells were cultured in a 384-well plate for 24 hours. Thereafter, the culture was removed, and 10 µL of each serially diluted substance was added to the plate, followed by incubation at room temperature for 30 minutes. Then, 5 µL of Eu-cAMP tracer was added, and then 5 µL of a buffer containing cAMP antibodies was added, followed by incubation at room temperature for 60 minutes. […]

Molecule	In vitro activity compared with comparative substance (%)
CC[C@H](C)[C@H](NC(=O)[C@H](Cc1ccccc1)NC(=O)[C@H](CC(C)C)NC(=O)[C@H](CCCNC(=N)N)NC(=O)[C@@H](NC(=O)[C@H](C)NC(=O)[C@H](CCC(=O)O)NC(=O)[C@H](CCC(=O)O)NC(=O)[C@H](CCC(=O)O)NC(=O)[C@H](CC(C)C)NC(=O)[C@H](Cc1ccc(O)cc1)NC(=O)[C@H](CO)NC(=O)[C@H](CO)NC(=O)[C@@H](NC(=O)[C@H](CC(=O)O)NC(=O)[C@H](CO)NC(=O)[C@@H](NC(C)=O)[C@@H](C)O)C(C)C)C(C)C)C(=O)N[C@@H](C)C(=O)N[C@@H](Cc1c[nH]c2ccccc12)C(=O)N[C@@H](CC(C)C)C(=O)N[C@H](C(=O)N[C@@H](CCCCN)C(=O)NCC(=O)NCC(=O)N1CCC[C@H]1C(=O)N[C@@H](CO)C(=O)N[C@@H](CO)C(=O)NCC(=O)N[C@@H](C)C(=O)N1CCC[C@H]1C(=O)N1CCC[C@H]1C(=O)N1CCC[C@H]1C(=O)N[C@@H](CO)C(N)=O)C(C)C [SEQ ID NO: 7] (Ac-TSDVSSYLEEEAVRLFIAWLVKGGPSSGAPPPS-NH2)	195.5%
CC[C@H](C)[C@H](NC(=O)[C@H](Cc1ccccc1)NC(=O)[C@H](CC(C)C)NC(=O)[C@H](CCCNC(=N)N)NC(=O)[C@@H](NC(=O)[C@H](C)NC(=O)[C@H](CCC(=O)O)NC(=O)[C@H](CCC(=O)O)NC(=O)[C@H](CCC(=O)O)NC(=O)[C@H](CC(C)C)NC(=O)[C@H](Cc1ccc(O)cc1)NC(=O)[C@H](CO)NC(=O)[C@H](CO)NC(=O)[C@@H](NC(=O)[C@H](CC(=O)O)NC(C)=O)C(C)C)C(C)C)C(=O)N[C@@H](C)C(=O)N[C@@H](Cc1c[nH]c2ccccc12)C(=O)N[C@@H](CC(C)C)C(=O)N[C@H](C(=O)N[C@@H](CCCCN)C(=O)NCC(=O)NCC(=O)N1CCC[C@H]1C(=O)N[C@@H](CO)C(=O)N[C@@H](CO)C(=O)NCC(=O)N[C@@H](C)C(=O)N1CCC[C@H]1C(=O)N1CCC[C@H]1C(=O)N1CCC[C@H]1C(=O)N[C@@H](CO)C(N)=O)C(C)C [SEQ ID NO: 8] (Ac-DVSSYLEEEAVRLFIAWLVKGGPSSGAPPPS-NH2)	238.5%
CC[C@H](C)[C@H](NC(=O)[C@H](Cc1ccccc1)NC(=O)[C@H](CCC(=O)O)NC(=O)[C@H](CCCNC(=N)N)NC(=O)[C@@H](NC(=O)[C@H](C)NC(=O)[C@H](CCC(N)=O)NC(=O)[C@H](CCC(=O)O)NC(=O)[C@H](CCC(=O)O)NC(=O)[C@H](CC(C)C)NC(=O)[C@H](Cc1ccc(O)cc1)NC(=O)[C@H](CO)NC(=O)[C@H](CO)NC(=O)[C@@H](NC(=O)[C@H](CC(=O)O)NC(C)=O)C(C)C)C(C)C)C(=O)N[C@@H](C)C(=O)N[C@@H](Cc1c[nH]c2ccccc12)C(=O)N[C@@H](CC(C)C)C(=O)N[C@H](C(=O)N[C@@H](CCCCN)C(=O)NCC(=O)NCC(=O)N1CCC[C@H]1C(=O)N[C@@H](CO)C(=O)N[C@@H](CO)C(=O)NCC(=O)N[C@@H](C)C(=O)N1CCC[C@H]1C(=O)N1CCC[C@H]1C(=O)N1CCC[C@H]1C(=O)N[C@@H](CO)C(N)=O)C(C)C [SEQ ID NO: 9] (Ac-DVSSYLEEQAVREFIAWLVKGGPSSGAPPPS-NH2)	188.6%

From patent publication EP4603506A1, “NOVEL GLP-1 RECEPTOR ANTAGONIST, AND PHARMACEUTICAL COMPOSITION FOR PREVENTING OR TREATING CONGENITAL […] OR HYPOGLYCEMIA, COMPRISING SAME” (Hanmi Pharm. Co., Ltd., priority 2022, dated 2024)
